Laboratory results reported in patent publication US20240228562A1, “NOVEL LIPOCALIN MUTEINS SPECIFIC FOR CONNECTIVE TISSUE GROWTH FACTOR (CTGF)” (PIERIS PHARMACEUTICALS GMBH, priority 2021, published 2024).

T1: Murine CTGF (Mus musculus, UniProt P29268)
T1 construct: purchased Abbexa
T1 sequence (P29268 26-348): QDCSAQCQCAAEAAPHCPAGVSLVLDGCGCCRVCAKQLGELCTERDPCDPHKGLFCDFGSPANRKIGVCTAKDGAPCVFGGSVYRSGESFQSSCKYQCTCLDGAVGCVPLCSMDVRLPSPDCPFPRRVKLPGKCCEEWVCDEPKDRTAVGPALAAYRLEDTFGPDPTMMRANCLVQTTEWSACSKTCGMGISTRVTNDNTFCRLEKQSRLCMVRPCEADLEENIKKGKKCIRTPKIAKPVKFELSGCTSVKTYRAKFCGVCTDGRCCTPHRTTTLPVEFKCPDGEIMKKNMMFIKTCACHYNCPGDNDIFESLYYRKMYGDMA

T2: Rat CTGF (Rattus norvegicus, UniProt Q9R1E9)
T2 construct: purchased R&D Systems
T2 sequence (Q9R1E9 25-347): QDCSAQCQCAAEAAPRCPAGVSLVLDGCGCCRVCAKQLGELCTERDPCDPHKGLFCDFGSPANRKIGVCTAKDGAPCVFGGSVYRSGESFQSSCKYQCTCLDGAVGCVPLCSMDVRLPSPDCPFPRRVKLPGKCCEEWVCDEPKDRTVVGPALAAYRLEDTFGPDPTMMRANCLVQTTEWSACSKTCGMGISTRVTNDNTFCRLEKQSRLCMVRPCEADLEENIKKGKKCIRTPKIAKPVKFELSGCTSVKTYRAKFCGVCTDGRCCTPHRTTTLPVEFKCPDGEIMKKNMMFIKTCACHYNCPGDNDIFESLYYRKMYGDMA


What was measured:
[1] = Thermal stability assessment by nanoDSC; assay type: physicochemical; conditions: 1 mg/mL in PBS, scan 25-100° C. at 1° C./min; for TM: major transition
Outline: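 CTGF-specific lipocalin muteins at 1 mg/mL in PBS scanned from 25 to 100° C at 1° C/min by capillary nano-DSC. Where several transitions occur, the Tm of the major unfolding event is reported, along with onset temperature. Some muteins were expressed in E. coli, others in CHO cells.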

cynomolgus CTGF = assay: SPR binding kinetics and affinity, cynomolgus CTGF; conditions: 25° C., 1:1 binding model
Protocol: (§1) Surface plasmon resonance (SPR) was used to measure binding kinetics and affinity of the representative lipocalin muteins disclosed herein.
(§2) The binding of exemplary lipocalin muteins to human (Creative Biomart), cynomolgus, rat (R&D Systems) and mouse CTGF (Abbexa) was determined by SPR using a Biacore instrument (Cytiva, formerly GE Healthcare). Some targets were fused to a human IgG1 Fc tag, and captured via the anti-human IgG antibody kit, others were directly immobilized.
(§3) For some measurements, human CTGF with a human IgG1 Fc Tag or rat or murine CTGF without a tag were directly immobilized to a CM5 Chip. The carboxyl groups on the chip were activated using 1-ethyl-3-(3-dimethylaminopropyl)-carbodiimide (EDC) and N-hydroxysuccinimide (NHS). Subsequently, the targets at a concentration of 3-5 μg/mL in 10 mM sodium acetate (pH) 4.5 were applied at a flow rate of 10 μL/min until an immobilization level of 300-1100 resonance units was achieved. Residual non-reacted NHS-esters were blocked by passing a solution of 1 M ethanolamine across the surface. The reference channel was activated/deactivated. For the capture setting, targets with an IgG Fc Tag at 0.25-2.5 μg/mL in HBS-EP+ buffer were captured by the anti-human IgG-Fc antibody at the chip surface for 180 s at a flow rate of 10 μL/min.
(§4) The binding assay was carried out with a contact time of 180 s, a dissociation time of 900-3600 s and a flow rate of 30 μL/min. All measurements were performed at 25° C. […] For the directly immobilized targets, the same regeneration conditions were used. Prior to the protein measurements, three startup cycles were performed for conditioning purposes. Data were evaluated with Biacore Evaluation software. Double referencing was used and the 1:1 binding model was used to fit the raw data.
(§5) The values determined for kon, koff and the resulting equilibrium dissociation constant (KD) for exemplary lipocalin muteins are summarized in Table 4.

human CTGF [2] = target: T3, human CTGF (Homo sapiens, UniProt P29279); assay: SPR binding kinetics and affinity, human CTGF; conditions: 25° C., 1:1 binding model
T3 construct: purchased Creative Biomart
Protocol: as §1, §2, §3, §4

human CTGF [3] = target: T4, human CTGF (Homo sapiens, UniProt P29279, H83D); assay: SPR binding kinetics and affinity, human CTGF; conditions: 25° C., 1:1 binding model
T4 construct: purchased Creative Biomart
Protocol: as §1, §2, §3, §4

Murine CTGF = target: T1, Murine CTGF; assay: SPR binding kinetics and affinity, murine CTGF; conditions: 25° C., 1:1 binding model
Protocol: as §1, §2, §3, §4, §5

Rat CTGF = target: T2, Rat CTGF; assay: SPR binding kinetics and affinity, rat CTGF; conditions: 25° C., 1:1 binding model
Protocol: as §1, §2, §3, §4, §5

cynomolgus CTGF, sequence (as listed by the source): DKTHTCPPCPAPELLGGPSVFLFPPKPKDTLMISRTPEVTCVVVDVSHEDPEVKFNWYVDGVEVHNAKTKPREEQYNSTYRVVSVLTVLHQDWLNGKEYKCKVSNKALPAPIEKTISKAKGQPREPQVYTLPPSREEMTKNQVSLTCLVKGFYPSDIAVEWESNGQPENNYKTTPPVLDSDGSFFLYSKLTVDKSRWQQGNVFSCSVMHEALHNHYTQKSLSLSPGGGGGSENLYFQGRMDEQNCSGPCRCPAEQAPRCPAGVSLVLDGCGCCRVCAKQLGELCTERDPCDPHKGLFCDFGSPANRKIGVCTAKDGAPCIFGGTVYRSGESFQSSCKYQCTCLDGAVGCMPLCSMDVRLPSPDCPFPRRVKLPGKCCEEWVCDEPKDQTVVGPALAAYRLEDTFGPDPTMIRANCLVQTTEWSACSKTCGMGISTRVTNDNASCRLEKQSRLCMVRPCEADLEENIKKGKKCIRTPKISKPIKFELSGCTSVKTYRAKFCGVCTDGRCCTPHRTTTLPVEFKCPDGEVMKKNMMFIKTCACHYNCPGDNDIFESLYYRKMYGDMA
T4 sequence (P29279 with tags, fused parts or gaps H83D): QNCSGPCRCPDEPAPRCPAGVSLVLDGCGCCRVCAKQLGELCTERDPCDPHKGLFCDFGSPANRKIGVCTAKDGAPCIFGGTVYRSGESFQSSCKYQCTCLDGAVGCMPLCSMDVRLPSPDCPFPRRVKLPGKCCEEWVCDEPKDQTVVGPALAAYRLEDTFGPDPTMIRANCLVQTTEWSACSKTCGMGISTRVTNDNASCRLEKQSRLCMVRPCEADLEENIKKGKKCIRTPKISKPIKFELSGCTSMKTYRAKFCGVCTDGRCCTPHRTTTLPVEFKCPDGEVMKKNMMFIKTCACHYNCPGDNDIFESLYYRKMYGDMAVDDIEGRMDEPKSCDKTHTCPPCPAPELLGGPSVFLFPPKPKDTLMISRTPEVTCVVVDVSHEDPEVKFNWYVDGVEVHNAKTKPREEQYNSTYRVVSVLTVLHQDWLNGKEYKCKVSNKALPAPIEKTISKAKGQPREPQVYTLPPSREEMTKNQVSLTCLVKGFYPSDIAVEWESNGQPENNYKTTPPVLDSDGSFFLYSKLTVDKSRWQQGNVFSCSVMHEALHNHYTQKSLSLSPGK
T3 sequence (P29279 with tags, fused parts or gaps H83D): as above

Row | cynomolgus CTGF koff (cynomolgus CTGF) [s⁻¹] | cynomolgus CTGF kon (cynomolgus CTGF) [M⁻¹ s⁻¹] | human CTGF koff (human CTGF [2]) [s⁻¹] | human CTGF kon (human CTGF [3]) [M⁻¹ s⁻¹] | Murine CTGF koff (Murine CTGF) [s⁻¹] | Murine CTGF kon (Murine CTGF) [M⁻¹ s⁻¹] | Rat CTGF koff (Rat CTGF) [s⁻¹] | Rat CTGF kon (Rat CTGF) [M⁻¹ s⁻¹] | Molecule | ONSET MELTING [1] [°C] | TM [1] [°C]
1 | 7.31e-05 | 162000 | 4.85e-05 | 195000 | 0.000444 | 281000 | 0.000423 | 223000 | SEQ ID NO: 31: optimized CTGF-binding hNGAL lipocalin mutein (protein, lipocalin mutein) QDSTSDLIPAPPLSKVPLQQNFQDNQFQGKWYVVGWAGNVKLREDKQPQKMSATIYELKEDKSYDVTEVVFEQKKCHYIIKTFVPGSQPGEFTAGDIKSPPGYTSSLVRVVSTNYNQHAMVFFKKVSQNREFFWITLYGRTKELTSELKENFIRFSKSLGLPENHIVFPVPIDQCIDG | 59 | 75
2 | 9.77e-05 | 141000 | 6.95e-05 | 165000 | 0.00052 | 310000 |  |  | SEQ ID NO: 36: optimized CTGF-binding hNGAL lipocalin mutein (protein, lipocalin mutein) QDSTSDLIPAPPLSKVPLQQNFQDNQFQGKWYVVGWAGNVKLREDKQPAKMSATIYELKEDKSYDVTEVVFEQKKCHYIIKTFVPGSQPGEFTAGDIKSPPGYTSSLVRVVSTNYNQHAMVFFKKVGQNREFFWITLYGRTKELTSELKENFIRFSKSLGLPENHIVFPVPIDQCIDG | 58 | 73
